From patent US20120165340

Molecular target: FLAG-HA-PTEN (UniProt P60484)
Sequence (P60484 whole entry): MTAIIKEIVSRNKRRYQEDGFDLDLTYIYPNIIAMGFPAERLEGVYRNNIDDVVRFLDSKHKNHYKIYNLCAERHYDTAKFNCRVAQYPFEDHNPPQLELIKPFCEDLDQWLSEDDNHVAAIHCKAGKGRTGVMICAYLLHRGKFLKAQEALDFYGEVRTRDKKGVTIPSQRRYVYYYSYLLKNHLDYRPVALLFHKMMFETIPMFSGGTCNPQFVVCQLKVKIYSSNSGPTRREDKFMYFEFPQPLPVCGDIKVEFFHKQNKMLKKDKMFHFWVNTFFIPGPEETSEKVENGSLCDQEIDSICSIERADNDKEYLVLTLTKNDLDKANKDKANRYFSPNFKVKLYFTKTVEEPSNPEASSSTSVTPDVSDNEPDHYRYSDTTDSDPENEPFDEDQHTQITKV

c-src
tyrosine phosphorylation of PTEN (Western blot with 4G10 and anti-pY240, FIG. 15): although src and lyn both phosphorylate PTEN on tyrosine, the phosphorylation of Y240 is much greater in the presence of lyn than when src is expressed with PTEN
tyrosine phosphorylation sites on PTEN identified by mass spectrometry: We identified four sites of tyrosine phosphorylation in the PTEN phosphatase domain (Y46, Y68, Y155 and Y174) and two sites in the PTEN C2 domain (Y240 and Y315)
